# Assay results from IntAct's records for PubMed 31515488.
# B1: Protein BANP (Homo sapiens), Q8N9N5 (parent)
# chain: MMSEHDLADVVQIAVEDLSPDHPVVLENHVVTDEDEPALKRQRLEINCQDPSIKTICLRLDSIEAKLQALEATCKSLEEKLDLVTNKQHSPIQVPMVAGSPLGATQTCNKVRCVVPQTTVILNNDRQNAIVAKMEDPLSNRAPDSLENVISNAVPGRRQNTIVVKVPGQEDSHHEDGESGSEASDSVSSCGQAGSQSIGSNVTLITLNSEEDYPNGTWLGDENNPEMRVRCAIIPSDMLHISTNCRTAEKMALTLLDYLFHREVQAVSNLSGQGKHGKKQLDPLTIYGIRCHLFYKFGITESDWYRIKQSIDSKCRTAWRRKQRGQSLAVKSFSRRTPNSSSYCPSEPMMSTPPPASELPQPQPQPQALHYALANAQQVQIHQIGEDGQVQVGHLHIAQVPQGEQVQITQDSEGNLQIHHVGQDGQLLEATRIPCLLAPSVFKASSGQVLQGAQLIAVASSDPAAAGVDGSPLQGSDIQVQYVQLAPVSDHTAGAQTAEALQPTLQPEMQLEHGAIQIQ
# B2: Zinc finger CCCH-type with G patch domain-containing protein (Homo sapiens), Q8N5A5 (parent)
# chain: MDEESLESALQTYRAQLQQVELALGAGLDSSEQADLRQLQGDLKELIELTEASLVSVRKSSLLAALDEERPGRQEDAEYQAFREAITEAVEAPAAARGSGSETVPKAEAGPESAAGGQEEEEGEDEEELSGTKVSAPYYSSWGTLEYHNAMVVGTEEAEDGSAGVRVLYLYPTHKSLKPCPFFLEGKCRFKENCRFSHGQVVSLDELRPFQDPDLSSLQAGSACLAKHQDGLWHAARITDVDNGYYTVKFDSLLLREAVVEGDGILPPLRTEATESDSDSDGTGDSSYARVVGSDAVDSAQSSALCPSLAVVGSDAVDSGTCSSAFAGWEVHTRGIGSRLLTKMGYEFGKGLGRHAEGRVEPIHAVVLPRGKSLDQCVETLQKQTRVGKAGTNKPPRCRGRGARPGGRPAPRNVFDFLNEKLQGQAPGALEAGAAPAGRRSKDMYHASKSAKRALSLRLFQTEEKIERTQRDIRSIQEALARNAGRHSVASAQLQEKLAGAQRQLGQLRAQEAGLQQEQRKADTHKKMTEF
# partner: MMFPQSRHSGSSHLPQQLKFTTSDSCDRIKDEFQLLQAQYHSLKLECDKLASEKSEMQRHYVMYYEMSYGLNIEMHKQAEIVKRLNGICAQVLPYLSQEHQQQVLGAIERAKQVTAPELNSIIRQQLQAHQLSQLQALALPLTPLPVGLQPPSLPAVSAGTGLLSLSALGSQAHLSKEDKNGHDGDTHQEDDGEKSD
# B3: mRNA-decapping enzyme 1A (Homo sapiens), Q9NPI6 (parent)
# chain: MEALSRAGQEMSLAALKQHDPYITSIADLTGQVALYTFCPKANQWEKTDIEGTLFVYRRSASPYHGFTIVNRLNMHNLVEPVNKDLEFQLHEPFLLYRNASLSIYSIWFYDKNDCHRIAKLMADVVEEETRRSQQAARDKQSPSQANGCSDHRPIDILEMLSRAKDEYERNQMGDSNISSPGLQPSTQLSNLGSTETLEEMPSGSQDKSAPSGHKHLTVEELFGTSLPKEQPAVVGLDSEEMERLPGDASQKEPNSFLPFPFEQLGGAPQSETLGVPSAAHHSVQPEITTPVLITPASITQSNEKHAPTYTIPLSPVLSPTLPAEAPTAQVPPSLPRNSTMMQAVKTTPRQRSPLLNQPVPELSHASLIANQSPFRAPLNVTNTAGTSLPSVDLLQKLRLTPQHDQIQTQPLGKGAMVASFSPAAGQLATPESFIEPPSKTAAARVAASASLSNMVLAPLQSMQQNQDPEVFVQPKVLSSAIPVAGAPLVTATTTAVSSVLLAPSVFQQTVTRSSDLERKASSPSPLTIGTPESQRKPSIILSKSQLQDTLIHLIKNDSSFLSTLHEVYLQVLTKNKDNHNL
# B4: Microtubule-associated tumor suppressor candidate 2 (Homo sapiens), Q5JR59-3 (parent)
# chain: MGHCCCKPYNCLQCLDKTNESALVKEKELSIELANIRDEVAFHTAKCEKLQKEKEELERRFEDEVKRLGWQQQAELQELEERLQLQFEAEMARLQEEHGDQLLSIRCQHQEQVEDLTASHDAALLEMENNHTVAITILQDDHDHKVQELMSTHELEKKELEENFEKLRLSLQDQVDTLTFQSQSLRDRARRFEEALRKNTEEQLEIALAPYQHLEEDMKSLKQVLEMKNQQIHEQEKKILELEKLAEKNIILEEKIQVLQQQNEDLKARIDQNTVVTRQLSEENANLQEYVEKETQEKKRLSRTNEELLWKLQTGDPTSPIKLSPTSPVYRGSSSGPSSPARVSTTPR
# partner: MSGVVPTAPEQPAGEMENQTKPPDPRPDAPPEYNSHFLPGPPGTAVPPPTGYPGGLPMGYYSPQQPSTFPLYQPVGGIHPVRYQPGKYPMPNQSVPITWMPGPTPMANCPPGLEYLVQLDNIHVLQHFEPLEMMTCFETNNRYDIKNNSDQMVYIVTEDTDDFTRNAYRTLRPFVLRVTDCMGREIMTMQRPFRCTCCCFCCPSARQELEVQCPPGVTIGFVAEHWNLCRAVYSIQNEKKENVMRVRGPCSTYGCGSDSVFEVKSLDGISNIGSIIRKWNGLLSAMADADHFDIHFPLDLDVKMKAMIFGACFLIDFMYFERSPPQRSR
# B5: Protein mab-21-like 3 (Homo sapiens), Q8N8X9 (parent)
# chain: MKYLTVGDLEDCLLNKVDLRRQQISQAVEEVQKVVHHLTTNISNQDIRFQAVPYSDTYNENIKVLAPSQFLVTVPIKGLAGYREAREQHWRYYTLQGTRLPCPLRDPEGLQQWLEVEQFMKSLWQWHETDVNIDGDIVPAKVLLVFRKLVENAVRTCHLSGKVSLLGNRSAVWVAVETSAYQVELELVPAVEIPTTWSKKARWPRCLQRWPSQERVECIKSFGFNLLACSNYHWQLSFLRAEQVLLEQLDEDGGCRRKCFQVMRHLKEDIWCPGNRPVITSHHLQTVLFWTCEKYPHFKDWQVFSKAFLRLVRKLHKCVSQHFLKHYFVRNSNLFQCTNPTELDTVAQKLATFLKNPQIGPP
# partner: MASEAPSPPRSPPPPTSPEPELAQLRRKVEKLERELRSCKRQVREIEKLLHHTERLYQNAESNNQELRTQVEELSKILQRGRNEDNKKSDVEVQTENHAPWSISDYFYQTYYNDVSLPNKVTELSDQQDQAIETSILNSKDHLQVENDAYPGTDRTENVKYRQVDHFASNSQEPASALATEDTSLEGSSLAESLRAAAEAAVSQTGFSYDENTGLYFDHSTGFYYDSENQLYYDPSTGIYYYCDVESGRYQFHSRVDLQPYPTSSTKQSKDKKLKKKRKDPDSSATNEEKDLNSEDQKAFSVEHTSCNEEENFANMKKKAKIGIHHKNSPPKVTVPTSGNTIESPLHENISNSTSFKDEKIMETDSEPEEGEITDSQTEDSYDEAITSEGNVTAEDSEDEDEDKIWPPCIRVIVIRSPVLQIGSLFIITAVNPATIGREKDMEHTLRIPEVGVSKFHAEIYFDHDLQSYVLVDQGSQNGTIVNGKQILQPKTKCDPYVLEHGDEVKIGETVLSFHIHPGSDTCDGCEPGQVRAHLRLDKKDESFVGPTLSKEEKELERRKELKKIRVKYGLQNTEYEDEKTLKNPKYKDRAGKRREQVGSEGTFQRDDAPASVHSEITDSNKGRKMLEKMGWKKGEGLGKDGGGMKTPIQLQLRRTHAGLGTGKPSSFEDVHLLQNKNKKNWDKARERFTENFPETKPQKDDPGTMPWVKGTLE
# B6: Proto-oncogene serine/threonine-protein kinase mos (Homo sapiens), P00540 (parent)
# chain: MPSPLALRPYLRSEFSPSVDARPCSSPSELPAKLLLGATLPRAPRLPRRLAWCSIDWEQVCLLQRLGAGGFGSVYKATYRGVPVAIKQVNKCTKNRLASRRSFWAELNVARLRHDNIVRVVAASTRTPAGSNSLGTIIMEFGGNVTLHQVIYGAAGHPEGDAGEPHCRTGGQLSLGKCLKYSLDVVNGLLFLHSQSIVHLDLKPANILISEQDVCKISDFGCSEKLEDLLCFQTPSYPLGGTYTHRAPELLKGEGVTPKADIYSFAITLWQMTTKQAPYSGERQHILYAVVAYDLRPSLSAAVFEDSLPGQRLGDVIQRCWRPSAAQRPSARLLLVDLTSLKAELG
# partner: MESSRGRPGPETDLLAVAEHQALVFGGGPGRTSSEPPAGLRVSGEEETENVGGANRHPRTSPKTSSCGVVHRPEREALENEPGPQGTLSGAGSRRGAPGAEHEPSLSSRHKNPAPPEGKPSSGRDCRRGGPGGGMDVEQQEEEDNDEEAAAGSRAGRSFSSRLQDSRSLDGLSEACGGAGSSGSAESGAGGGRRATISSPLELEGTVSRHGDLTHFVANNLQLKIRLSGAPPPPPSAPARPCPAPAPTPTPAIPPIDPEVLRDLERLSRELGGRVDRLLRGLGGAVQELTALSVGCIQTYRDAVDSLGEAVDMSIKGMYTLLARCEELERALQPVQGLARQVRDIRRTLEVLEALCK
# B7: Notch homolog 2 N-terminal-like protein A (Homo sapiens), Q7Z3S9 (parent)
# chain: MCVTYHNGTGYCKCPEGFLGEYCQHRDPCEKNRCQNGGTCVAQAMLGKATCRCASGFTGEDCQYSTSHPCFVSRPCLNGGTCHMLSRDTYECTCQVGFTGKECQWTDACLSHPCANGSTCTTVANQFSCKCLTGFTGQKCETDVNECDIPGHCQHGGTCLNLPGSYQCQCLQGFTGQYCDSLYVPCAPSPCVNGGTCRQTGDFTFECNCLPETVRRGTELWERDREVWNGKEHDEN
# partner: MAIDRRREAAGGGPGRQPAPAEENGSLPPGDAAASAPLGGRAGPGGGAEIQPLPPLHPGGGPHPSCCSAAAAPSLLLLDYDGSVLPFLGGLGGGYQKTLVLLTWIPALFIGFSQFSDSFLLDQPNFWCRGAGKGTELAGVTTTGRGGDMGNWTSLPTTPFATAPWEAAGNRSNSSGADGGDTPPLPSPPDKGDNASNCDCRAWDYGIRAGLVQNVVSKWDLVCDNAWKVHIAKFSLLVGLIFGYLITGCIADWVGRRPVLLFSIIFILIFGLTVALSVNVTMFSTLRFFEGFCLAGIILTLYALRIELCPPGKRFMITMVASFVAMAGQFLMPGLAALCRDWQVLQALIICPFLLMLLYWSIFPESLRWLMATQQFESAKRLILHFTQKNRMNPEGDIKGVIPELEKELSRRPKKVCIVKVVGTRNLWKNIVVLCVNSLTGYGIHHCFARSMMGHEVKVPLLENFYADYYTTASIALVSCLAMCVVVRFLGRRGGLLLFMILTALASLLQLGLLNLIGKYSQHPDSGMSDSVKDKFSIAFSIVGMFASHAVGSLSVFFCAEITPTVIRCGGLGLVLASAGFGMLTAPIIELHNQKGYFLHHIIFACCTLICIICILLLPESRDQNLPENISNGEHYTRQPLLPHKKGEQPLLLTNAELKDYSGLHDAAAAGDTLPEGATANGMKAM
# Variants of: B1
# Conditions: with zn471_human ZNF471, Q9BX82
# Chain of zn471_human ZNF471, Q9BX82 (Q9BX82 whole entry): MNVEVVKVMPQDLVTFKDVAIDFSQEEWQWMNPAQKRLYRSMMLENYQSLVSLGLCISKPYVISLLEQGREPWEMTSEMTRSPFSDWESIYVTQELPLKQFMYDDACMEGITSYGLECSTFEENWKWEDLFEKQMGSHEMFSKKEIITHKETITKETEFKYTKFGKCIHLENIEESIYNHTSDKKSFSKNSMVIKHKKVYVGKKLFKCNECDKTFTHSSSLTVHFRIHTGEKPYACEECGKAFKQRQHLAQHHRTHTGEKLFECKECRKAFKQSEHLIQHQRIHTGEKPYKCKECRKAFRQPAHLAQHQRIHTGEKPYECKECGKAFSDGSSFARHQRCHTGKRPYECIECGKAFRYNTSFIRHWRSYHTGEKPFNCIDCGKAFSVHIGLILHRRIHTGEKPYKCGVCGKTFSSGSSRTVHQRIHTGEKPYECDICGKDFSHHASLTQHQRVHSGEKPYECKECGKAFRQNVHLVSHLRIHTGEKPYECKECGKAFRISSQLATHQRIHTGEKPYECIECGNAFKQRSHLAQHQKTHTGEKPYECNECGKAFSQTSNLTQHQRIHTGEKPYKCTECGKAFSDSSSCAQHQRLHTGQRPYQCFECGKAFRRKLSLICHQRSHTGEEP
row,Variant,effect of a mutation on the interaction
1,P348S,with no effect

# Variants of: B2
# Conditions: with tle5_human TLE5, Q08117
row,Variant,effect of a mutation on the interaction
1,S61R,with no effect

# Variants of: B3
# Conditions: with pnrc2_human PNRC2, Q9NPJ4
# Chain of pnrc2_human PNRC2, Q9NPJ4 (Q9NPJ4 whole entry): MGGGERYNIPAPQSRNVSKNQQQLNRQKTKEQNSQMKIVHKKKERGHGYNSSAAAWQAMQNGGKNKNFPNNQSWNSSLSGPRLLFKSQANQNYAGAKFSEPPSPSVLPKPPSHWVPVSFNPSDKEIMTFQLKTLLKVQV
row,Variant,effect of a mutation on the interaction
1,A297G,with no effect
2,Q474H,with no effect
3,P332T,with no effect

# Variants of: B4
# Conditions: with pls4_human PLSCR4, Q9NRQ2
row,Variant,effect of a mutation on the interaction
1,A89V,with no effect

# Variants of: B5
# Conditions: with aggf1_human AGGF1, Q8N302
row,Variant,effect of a mutation on the interaction
1,T338A,with no effect

# Variants of: B6
# Conditions: with borc6_human BORCS6, Q96GS4
row,Variant,effect of a mutation on the interaction
1,A105S,with no effect
2,A123T,disrupting interaction strength

# Variants of: B7
# Conditions: with SLC22A23, A1A5C7
row,Variant,effect of a mutation on the interaction
1,R74Q,with no effect
2,A115T,with no effect
